Test results taken from patent US20140120082A1.

How the values were obtained:
8.3 TcR = experiment: tetramer staining of 8.3 TcR-transgenic NOD CD8+ T cells, flow cytometry
human NKG2D (human) [1] = target: human NKG2D (human) (UniProt P26718); experiment: flow cytometry on NKL cells stained on ice with biotinylated mAb, APC-streptavidin before culture (0 h)
human NKG2D (human) [2] = target: human NKG2D (human) (UniProt P26718); experiment: flow cytometry on NKL cells stained on ice with biotinylated mAb, APC-streptavidin after 16 h of culture at 37° C
human NKG2D (human) [3] = target: human NKG2D (human) (UniProt P26718); experiment: cell-based or functional assay

Sequence of UniProt P26718 (P26718 whole entry T72A): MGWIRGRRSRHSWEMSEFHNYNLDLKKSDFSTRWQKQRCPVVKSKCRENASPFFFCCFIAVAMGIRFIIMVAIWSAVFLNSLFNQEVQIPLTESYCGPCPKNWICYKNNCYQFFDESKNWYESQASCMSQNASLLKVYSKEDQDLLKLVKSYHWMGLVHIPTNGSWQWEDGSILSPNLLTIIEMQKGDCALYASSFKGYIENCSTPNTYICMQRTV

| percent of donor CD8+ T cells tetramer positive (8.3 TcR) | mean fluorescence intensity (arbitrary units) (human NKG2D (human) [1]) | mean fluorescence intensity (arbitrary units) (human NKG2D (human) [2]) | decrease in expression of NKG2D on the cell surface (human NKG2D (human) [3]) | Substance |
| --- | --- | --- | --- | --- |
| > 90% | – | – | – | NRP-V7/H-2K^d tetramer (from UniProt P01902 22-305) (peptide-MHC) |
| – | 186 | 61 | 67% | mouse anti-human NKG2D mAb (R&D Systems clone 149810) (antibody) |
